{"source": "paper PMC9062193", "data": [{"target": "lactoferrin (Lac) (bovine? (\"from bovine milk\"), UniProt P24627 20-708)", "sequence (P24627 20-708)": "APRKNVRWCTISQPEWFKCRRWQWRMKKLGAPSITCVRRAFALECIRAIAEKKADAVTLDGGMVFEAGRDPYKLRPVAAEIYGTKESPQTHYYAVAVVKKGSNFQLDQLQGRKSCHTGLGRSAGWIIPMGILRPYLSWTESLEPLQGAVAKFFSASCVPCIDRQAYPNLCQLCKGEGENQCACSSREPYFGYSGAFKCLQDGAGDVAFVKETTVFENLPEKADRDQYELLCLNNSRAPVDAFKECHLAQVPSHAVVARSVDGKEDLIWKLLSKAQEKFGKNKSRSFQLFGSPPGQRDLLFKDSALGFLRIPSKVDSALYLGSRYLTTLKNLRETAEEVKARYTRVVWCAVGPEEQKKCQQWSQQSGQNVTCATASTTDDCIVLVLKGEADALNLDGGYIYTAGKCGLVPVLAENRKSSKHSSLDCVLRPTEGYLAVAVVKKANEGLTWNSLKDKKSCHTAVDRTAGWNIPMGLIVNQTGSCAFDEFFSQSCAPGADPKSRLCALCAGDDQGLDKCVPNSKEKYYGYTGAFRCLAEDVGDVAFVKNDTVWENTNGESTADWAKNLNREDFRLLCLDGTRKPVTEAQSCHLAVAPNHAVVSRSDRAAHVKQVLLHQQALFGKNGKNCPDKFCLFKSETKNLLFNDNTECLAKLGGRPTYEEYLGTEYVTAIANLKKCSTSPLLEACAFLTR", "test": "protein microarray", "units": {"binding signal": "fluorescence intensity"}, "values": [{"binder": "YFL-7 (Lac-A6), truncated (ssDNA) DNA: GCAGGACACCGTAACGGGTGCACACTCTTATTTTTACACGAGCCAAAAATATGTCCTGC", "binding signal": 2490}, {"binder": "YFL-4 (Lac-A1, Lac1-4), truncated (ssDNA) DNA: GCAGGACACCGTAACACGGGCTGATGCTCTCTTTATTTTACCTAAATAAAGTGTCCTGC", "binding signal": 2150}, {"binder": "YFL-5 (Lac-A3, Lac8-2), truncated (ssDNA) DNA: CAGGCAGGACACCGTAACCGGGCATTTGCTCTCAATTTAGTCTCAAATTGTGGCCTGCCTG", "binding signal": 2240}, {"binder": "AGGCAGGACACCGTAACCGGTGCATCTATGGCTACTAGCTTTTCCTGCCT (ssDNA)", "note": "[YFL-1 (Lac-6a), truncated]", "binding signal": 1780}, {"binder": "AGGCAGGACACCGTAACCGGTGCATCTATGGCTACTAGCTCTTCCTGCCT (ssDNA)", "note": "[YFL-6 (Lac-A4), truncated]", "binding signal": 2840}]}]}
